Source: patent US20250340655A1, “EPHA2-TARGETING ANTIBODIES AND THEIR APPLICATIONS IN CANCER TREATMENT” (TAIPEI MEDICAL UNIVERSITY, priority 2022, published 2025)
Blank lines part the entries; values can stand above or below the molecule they belong to.

Legend:
[1] = target: T1, EphA3 overexpressed on 293T cells (UniProt P29320 21-983, limits assumed); assay: flow cytometry on 293T cells overexpressing EphA1-A8
T1 construct: whole, on cells
T1 sequence (looked up): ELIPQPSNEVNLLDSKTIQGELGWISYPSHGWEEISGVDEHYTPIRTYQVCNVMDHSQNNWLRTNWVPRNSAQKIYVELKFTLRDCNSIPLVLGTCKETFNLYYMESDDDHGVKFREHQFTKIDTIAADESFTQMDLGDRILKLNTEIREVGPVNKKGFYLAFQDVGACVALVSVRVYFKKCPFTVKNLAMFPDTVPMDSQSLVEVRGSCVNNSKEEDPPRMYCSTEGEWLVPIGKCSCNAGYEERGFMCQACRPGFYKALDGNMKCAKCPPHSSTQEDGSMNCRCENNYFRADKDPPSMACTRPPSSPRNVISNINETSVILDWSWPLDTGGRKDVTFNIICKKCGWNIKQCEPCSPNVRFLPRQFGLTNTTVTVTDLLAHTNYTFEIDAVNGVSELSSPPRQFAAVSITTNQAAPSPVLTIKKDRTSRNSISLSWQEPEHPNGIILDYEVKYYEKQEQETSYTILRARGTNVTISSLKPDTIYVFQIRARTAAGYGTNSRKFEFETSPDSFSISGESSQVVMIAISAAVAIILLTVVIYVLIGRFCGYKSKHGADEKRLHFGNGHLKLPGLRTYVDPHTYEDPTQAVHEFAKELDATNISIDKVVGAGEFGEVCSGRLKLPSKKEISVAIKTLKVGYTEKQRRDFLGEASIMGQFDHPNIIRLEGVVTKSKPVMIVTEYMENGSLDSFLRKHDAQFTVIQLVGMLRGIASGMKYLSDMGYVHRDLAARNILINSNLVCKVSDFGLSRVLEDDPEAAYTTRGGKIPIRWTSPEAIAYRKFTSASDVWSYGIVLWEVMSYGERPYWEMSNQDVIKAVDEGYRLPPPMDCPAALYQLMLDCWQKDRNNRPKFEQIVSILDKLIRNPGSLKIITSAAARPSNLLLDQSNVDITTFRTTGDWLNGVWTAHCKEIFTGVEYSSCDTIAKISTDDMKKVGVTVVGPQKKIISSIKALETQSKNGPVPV
Experimental: To detect the binding specificity of scFv, 293T cells were transformed with EphA1-A8 plasmids individually for overexpression of different EphA molecules. The cell line was freshly prepared and washed with FACS buffer (2% FBS in PBS). The cells were seeded at 1×10⁵ cells/well into a 96-well Ubottom plate and incubated with scFv for 1 h at 4° C. After the plate was washed with FACS buffer, the anti-hemagglutinin (HA) antibody was added for scFv binding detection (scFv was fused with a HA tag) and subsequently developed using an FITC-conjugated secondary antibody. Finally, the cell binding signal was analyzed using a FACS can flow cytometer.

BxPc-3 tumor = BxPc-3 tumor xenograft model (IgG hSD5, gemcitabine); format: in vivo, mouse
Experimental: The freshly prepared BxPc-3 and Mia PaCa-2 cancer cells were harvested during the log growth phase and resuspended in PBS for tumor implantation. Each NOD/SCID mouse was subcutaneously inoculated with cancer cells (5×10^6 to BxPc-3 and 1×10^7 to Mia PaCa-2) for tumor formation. The tumor size was measured twice weekly, and the volume was calculated as follows: V=0.5lw^2, where l=the length and w=the width. When the tumor size was approximately 100 mm3, animals were divided into groups that received (a) vehicle alone through intravenous injection (i.v.) once weekly (qwk), (b) control human IgG1 at 20 mg/kg through i.v. qwk, (c) and (d) hSD5 IgG1 at 2 or 20 mg/kg through i.v. qwk, (e) and (f) gemcitabine at 20 or 100 mg/kg through i.v. twice weekly (biw), or (g) hSD5 IgG1 at 2 mg/kg through i.v. qwk combined with gemcitabine at 20 mg/kg through i.v. biw. At the end of the experiment, the antitumor effects were quantified by dividing the tumor volumes in the treatment groups by those in the control groups and multiplying them by 100 to represent tumor growth inhibition (TGI; %). The mice were also examined frequently for overt signs of adverse drug-related side effects.
The pancreatic tissue microarray slide (US Biomax, PA483e) was used to detect and analyze the EphA2 expression of clinical samples. In the xenograft animal model, the excised BxPc-3 and Mia PaCa-2 tumors were fixed in formalin, embedded in paraffin, and sliced for immunohistochemical staining (IHC). Commercial antibodies (Cell signaling, Dako; Agilent Technologies; and Abcam) were used for staining the EphA2 molecule, cell proliferation marker Ki-67, and apoptosis marker cleaved caspase 3. The effects of staining were observed using a Zeiss Axioskop-2 microscope (Carl Zeiss).
Administration of IgG hSD5 (20 mg/kg, iv, qwk, indicated as blue filled inverted triangles) and Gemcitabine (100 mg/kg, iv, biw, indicated as orange filled squares) were used to test the inhibition effect on BxPc-3 tumor growth, n=6, TGI denotes Tumor growth inhibition. (FIG. 7A) Administration of IgG hSD5 (2 mg/kg, iv, qwk, indicated by solid black triangles), Gemcitabine (20 mg/kg, iv, biw, indicated by black open squares), and the experimental group that combined IgG and Gemcitabine treatment simultaneously (indicated by solid red diamonds) were used to teat the growth inhibitory effect of BxPc-3 on the tumor. (FIG. 7B) During treatments, the weight changes of each mouse group were tracked. (FIG. 7C) The expression levels of EphA2, cell proliferation marker Ki67, and apoptosis-related marker cleaved caspase3 in the excised tumor groups were analyzed by IHC staining. (FIG. 7D)

binding result [1]: no binding
B1: Humanized scFv hSD5 (scFv)
scFv: LTQPPSVSVSPGQTVRITCSGSSGSYGWYQQKSPGQAPVTLIYDNDKRPSGIPERFSGSSSGSTSTLTISGVQAEDEADYYCGSADSSTYVGMFGGGTKLTVLGQSSRSSQVQLVESGGGLVQPGGSLRLSCAASGFTFSDYGMGWVRQAPGKGLEWVAGISAAGSFTPYGAAVKGRFTISRDNSKNTVYLQMNSLRAEDTAVYYCARIPSGYRAGEIYTWGQGTLVTVSS
notes: also called hSD5 scFv; Humanized scFv hSDS

B2: IgG hSD5: complete humanized anti-EphA2 IgG (IgG1) of hSD5 (antibody, V domains shown)
VH: QVQLVESGGGLVQPGGSLRLSCAASGFTFSDYGMGWVRQAPGKGLEWVAGISAAGSFTPYGAAVKGRFTISRDNSKNTVYLQMNSLRAEDTAVYYCARIPSGYRAGEIYTWGQGTLVTVSS
VL: LTQPPSVSVSPGQTVRITCSGSSGSYGWYQQKSPGQAPVTLIYDNDKRPSGIPERFSGSSSGSTSTLTISGVQAEDEADYYCGSADSSTYVGMFGGGTKLTVL
effect on growth of tumors in vivo (BxPc-3 tumor; BxPc-3 xenograft mice): significantly inhibited the growth of tumors | TGI (tumor growth inhibition) (BxPc-3 tumor; BxPc-3 xenograft, 20 mg/kg, iv, qwk): 53.1% | expression levels of EphA2 and Ki-67 in the tumors (BxPc-3 tumor; IHC of removed BxPc-3 tumors, compared with control IgG group (FIG. 7D)): significantly decreased
